Among the data in article PMC7181223, “A DyP-Type Peroxidase of Pleurotus sapidus with Alkene Cleaving Activity” (Molecules, 2020) are Km and kcat/Km values, retold here.

Substrate in this data set: CCn1c(=NN=c2sc3cc(S(=O)(=O)O)ccc3n2CC)sc2cc(S(=O)(=O)O)ccc21
Kind of data set: purified protein. In kind it is biochemical, Pleurotus sapidus. Particulars: 100 µM H2O2, 25 mM MnSO4, optimal pH and temperature (pH 3.5, 40 °C).

B1: PsaPOX (DyP-type peroxidase of Pleurotus sapidus) (Pleurotus sapidus) (protein)
chain: MTTPAPPLDLNNIQGDILGGLPKKTETYFFFDVTNVDRFKANMTQFIPHVKTSAGIVKDREAIKEHKRQKRPGLVPMAAVNVSFSHLGLQKLGITDDLSDSSFTTGQRKDAEVLGDPGTKNGDTFTPAWEAPFLKDIHGVIFVAGDCHASVHKKLDEIKHIFGVGTSHASISEVTHVRGDVRPGQVSAHEHFGFLDGISNPAVDQFDQNPFPGQDSIRPGFILAKENGDSRAAARPDWAKDGSFLTFRYLFQMVPEFDDFLESNPIVLPGLSRKEGSELLGARIVGRWKSGAPIEITPLKDDPKLGADAQRNNNFDFGDSLVRGDQTKCPFAAHIRKTYPRNDLEGPPLNADIDNRRIIRRGIQFGPEVTSQEHHDKKTHHGRGLLFVCYSSSIDDGFHFIQQSWANAPNFPVNAVTSAGPIPPLDGVIPGFDAIIGQKVGGGIRQISGTNPNDPTTNITLPDQDFVIPRGGEYFFSPSISALKTKFAAGVASSAPQAQAPIST
notes: full-length ORF (1512 bp, 504 aa), C-terminal 6x His tag kept, S. cerevisiae alpha-factor secretion signal (pPIC9), Komagataella pfaffii GS115, Ni-NTA; monomeric
Consider B1, for which the Km came to 37 ± 4 µM and the kcat/Km stood at 184000 ± 5000 M⁻¹ s⁻¹.

The term Km denotes the concentration of substrate that gives half-maximal velocity. Usually kcat/Km stands for the second-order rate constant that governs catalysis at low substrate concentration.
